Patent publication US20240383984A1 (Genentech, published 2024)
Residue numbers refer to the chain shown, from its start. Names and notes keep the numbering of the source.

T1: human FcRH5 protein fragment (soluble) (human, UniProt Q96RD9 16-851)
T1 construct: whole entry named; also called soluble human FcRH5; Human FcRH5 (BIACORE analyte)
T1 sequence: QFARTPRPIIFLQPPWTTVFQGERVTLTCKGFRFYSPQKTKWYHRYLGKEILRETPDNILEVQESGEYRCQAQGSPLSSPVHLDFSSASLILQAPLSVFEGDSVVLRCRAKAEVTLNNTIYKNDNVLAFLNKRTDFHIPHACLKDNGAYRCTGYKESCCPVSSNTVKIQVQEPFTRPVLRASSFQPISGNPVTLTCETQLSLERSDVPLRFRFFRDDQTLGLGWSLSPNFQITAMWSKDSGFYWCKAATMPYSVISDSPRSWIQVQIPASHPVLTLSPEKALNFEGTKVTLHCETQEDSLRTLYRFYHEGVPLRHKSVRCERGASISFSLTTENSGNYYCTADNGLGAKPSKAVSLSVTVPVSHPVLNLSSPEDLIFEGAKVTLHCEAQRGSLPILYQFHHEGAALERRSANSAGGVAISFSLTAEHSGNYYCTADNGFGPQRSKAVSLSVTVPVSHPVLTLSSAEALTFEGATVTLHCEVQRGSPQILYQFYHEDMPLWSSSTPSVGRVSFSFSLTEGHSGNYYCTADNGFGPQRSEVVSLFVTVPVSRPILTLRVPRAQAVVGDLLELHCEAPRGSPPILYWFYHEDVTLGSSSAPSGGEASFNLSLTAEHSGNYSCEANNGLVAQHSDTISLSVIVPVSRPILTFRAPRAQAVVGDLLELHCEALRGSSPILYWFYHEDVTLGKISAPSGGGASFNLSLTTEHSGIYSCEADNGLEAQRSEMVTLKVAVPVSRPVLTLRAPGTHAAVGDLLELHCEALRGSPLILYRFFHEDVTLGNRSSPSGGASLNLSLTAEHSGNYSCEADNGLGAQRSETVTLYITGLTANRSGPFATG

B1: hu1G7.v1 heavy chain M64L with light chain of hu1G7.v1.6 (antibody, V domains shown)
VH: EVQLVESGPGLVKPSETLSLTCTVSGFSLTRFGVHWVRQPPGKGLEWLGVIWRGGSTDYNAAFLSRLTISKDNSKNQVSLKLSSVTAADTAVYYCSNHYYGSSDYALDNWGQGTLVTVSS
VL: DIQMTQSPSSLSASVGDRVTITCKASQDVSNIVVWFQQKPGKAPKLLIYSGYYRYSGVPSRFSGSGSGTDFTLTISSLQPEDFATYYCQQQYQPPYTFGQGTKVEIK
notes: human IgG
B2: hu1G7.v1 heavy chain M64V with light chain of hu1G7.v1.3 (antibody, V domains shown)
VH: B1 VH with L64V
VL: B1 VL with S30R, Y52S, Q93S
notes: human IgG
B3: hu1G7.v1 heavy chain M64V with light chain of hu1G7.v1.5 (antibody, V domains shown)
VH: B1 VH with L64V
VL: B1 VL with A43S, S56T, Y92F
notes: human IgG
B4: hu1G7.v1 heavy chain M64V with light chain of hu1G7.v1.6 (antibody, V domains shown)
VH: B1 VH with L64V
VL: B1 VL
notes: human IgG
B5: hu1G7.v1 heavy chain M64V with light chain of hu1G7.v1.7 (antibody, V domains shown)
VH: B1 VH with L64V
VL: B1 VL with S30R, I32L, S56T, Q91H
notes: human IgG
B6: hu1G7.v1 heavy chain W52F with light chain of hu1G7.v1 (antibody, V domains shown)
VH: B1 VH with W52F, L64M
VL: B1 VL with A43S, G51A, Y52S, S56T, Q91H, Q93S, P94S
notes: human IgG
B7: hu1G7.v1 heavy chain W52F with light chain of hu1G7.v1.3 (antibody, V domains shown)
VH: B1 VH with W52F, L64M
VL: B1 VL with S30R, Y52S, Q93S
notes: human IgG
B8: hu1G7.v1 heavy chain W52F with light chain of hu1G7.v1.4 (antibody, V domains shown)
VH: B1 VH with W52F, L64M
VL: B1 VL with S30R, I32L, Y52S, Q91H, Q93S
notes: human IgG
B9: hu1G7.v1 heavy chain W52F with light chain of hu1G7.v1.5 (antibody, V domains shown)
VH: B1 VH with W52F, L64M
VL: B1 VL with A43S, S56T, Y92F
notes: human IgG
B10: hu1G7.v1 heavy chain W52F with light chain of hu1G7.v1.6 (antibody, V domains shown)
VH: B1 VH with W52F, L64M
VL: B1 VL
notes: human IgG
B11: hu1G7.v1 heavy chain W52F with light chain of hu1G7.v1.7 (antibody, V domains shown)
VH: B1 VH with W52F, L64M
VL: B1 VL with S30R, I32L, S56T, Q91H
notes: human IgG
B12: hu1G7.v1 heavy chain W52H with light chain of hu1G7.v1 (antibody, V domains shown)
VH: B1 VH with W52H, L64M
VL: B1 VL with A43S, G51A, Y52S, S56T, Q91H, Q93S, P94S
notes: human IgG
B13: hu1G7.v1 heavy chain W52H with light chain of hu1G7.v1.3 (antibody, V domains shown)
VH: B1 VH with W52H, L64M
VL: B1 VL with S30R, Y52S, Q93S
notes: human IgG
B14: hu1G7.v1 heavy chain W52H with light chain of hu1G7.v1.4 (antibody, V domains shown)
VH: B1 VH with W52H, L64M
VL: B1 VL with S30R, I32L, Y52S, Q91H, Q93S
notes: human IgG
B15: hu1G7.v1 heavy chain W52H with light chain of hu1G7.v1.5 (antibody, V domains shown)
VH: B1 VH with W52H, L64M
VL: B1 VL with A43S, S56T, Y92F
notes: human IgG
B16: hu1G7.v1 heavy chain W52H with light chain of hu1G7.v1.6 (antibody, V domains shown)
VH: B1 VH with W52H, L64M
VL: B1 VL
notes: human IgG
B17: hu1G7.v1 heavy chain W52H with light chain of hu1G7.v1.7 (antibody, V domains shown)
VH: B1 VH with W52H, L64M
VL: B1 VL with S30R, I32L, S56T, Q91H
notes: human IgG
B18: hu1G7.v1 heavy chain W52L with light chain of hu1G7.v1 (antibody, V domains shown)
VH: B1 VH with W52L, L64M
VL: B1 VL with A43S, G51A, Y52S, S56T, Q91H, Q93S, P94S
notes: human IgG
B19: hu1G7.v1 heavy chain W52L with light chain of hu1G7.v1.3 (antibody, V domains shown)
VH: B1 VH with W52L, L64M
VL: B1 VL with S30R, Y52S, Q93S
notes: human IgG
B20: hu1G7.v1 heavy chain W52L with light chain of hu1G7.v1.4 (antibody, V domains shown)
VH: B1 VH with W52L, L64M
VL: B1 VL with S30R, I32L, Y52S, Q91H, Q93S
notes: human IgG
B21: hu1G7.v1 heavy chain W52L with light chain of hu1G7.v1.5 (antibody, V domains shown)
VH: B1 VH with W52L, L64M
VL: B1 VL with A43S, S56T, Y92F
notes: human IgG
B22: hu1G7.v1 heavy chain W52L with light chain of hu1G7.v1.6 (antibody, V domains shown)
VH: B1 VH with W52L, L64M
VL: B1 VL
notes: human IgG
B23: hu1G7.v1 heavy chain W52L with light chain of hu1G7.v1.7 (antibody, V domains shown)
VH: B1 VH with W52L, L64M
VL: B1 VL with S30R, I32L, S56T, Q91H
notes: human IgG
B24: hu1G7.v1 heavy chain W52Y with light chain of hu1G7.v1 (antibody, V domains shown)
VH: B1 VH with W52Y, L64M
VL: B1 VL with A43S, G51A, Y52S, S56T, Q91H, Q93S, P94S
notes: human IgG
B25: hu1G7.v1 heavy chain W52Y with light chain of hu1G7.v1.3 (antibody, V domains shown)
VH: B1 VH with W52Y, L64M
VL: B1 VL with S30R, Y52S, Q93S
notes: human IgG
B26: hu1G7.v1 heavy chain W52Y with light chain of hu1G7.v1.4 (antibody, V domains shown)
VH: B1 VH with W52Y, L64M
VL: B1 VL with S30R, I32L, Y52S, Q91H, Q93S
notes: human IgG
B27: hu1G7.v1 heavy chain W52Y with light chain of hu1G7.v1.5 (antibody, V domains shown)
VH: B1 VH with W52Y, L64M
VL: B1 VL with A43S, S56T, Y92F
notes: human IgG
B28: hu1G7.v1 heavy chain W52Y with light chain of hu1G7.v1.6 (antibody, V domains shown)
VH: B1 VH with W52Y, L64M
VL: B1 VL
notes: human IgG
B29: hu1G7.v1 heavy chain W52Y with light chain of hu1G7.v1.7 (antibody, V domains shown)
VH: B1 VH with W52Y, L64M
VL: B1 VL with S30R, I32L, S56T, Q91H
notes: human IgG
B30: hu1G7.v87 (antibody, V domains shown)
VH: B1 VH with L64V
VL: B1 VL with A43S, G51A, Y52S, S56T, Q91H, Q93S, P94S
notes: Human IgG
B31: 1G7.v1C (antibody, human IgG1, V domains shown)
VH: B1 VH with S28P, L64M
VL: B1 VL with A43S, G51A, Y52S, S56T, Q91H, Q93S, P94S
notes: human IgG1 with the light chain of hu1G7.v1; also called C (hu1G7.v1 heavy chain S28P)
B32: 1G7.v1D (antibody, human IgG1, V domains shown)
VH: B1 VH with L29T, L64M
VL: B1 VL with A43S, G51A, Y52S, S56T, Q91H, Q93S, P94S
notes: human IgG1 with the light chain of hu1G7.v1; also called D (hu1G7.v1 heavy chain L29T)

biological target: T1, human FcRH5 protein fragment (soluble); assay: SPR (BIACORE), IgG captured via anti-human IgG, FcRH5 protein fragment as analyte (100 and 500 nM)
Protocol: (§1) Briefly, a human IgG capture surface was generated on a Series S CM5 chip using amine coupling and the human IgG capture kit (GE Life Sciences, Piscataway, NJ). Test antibodies were then captured on flow cells 2, 3, or 4, with flow cell 1 used as a reference. An FcRH5 protein fragment was used as the analyte, with a flow rate of […]. Between injections the capture surface was regenerated by a 30-second injection of 3M magnesium chloride or 10 mM glycine, pH 1.5. Interactions were assessed at 25° C. in 10 mM HEPES pH7.4, 150 mM NaCl, and 0.05% Tween 20 (HBSP). Reference data from the reference flow cell and from injection of buffer alone were subtracted prior to kinetic analysis. Kinetic information was calculated by fitting data to a 1:1 binding model. Reference subtraction and data fitting were performed using BIAevaluation software (GE Life Sciences, Piscataway, NJ).
(§2) For affinity screening of HVR-H2 Trp52 and Met64 variants (Table 7), antibodies were expressed by transient transfection of Expi293 cells and purified using tip columns that were custom packed with affinity resin MabSelect SuRe (Glygen Corp., Columbia, MD & GE Life Sciences, Piscataway, NJ). […] Binding of FcRH5 protein fragment to captured antibodies was monitored at 100 nM and 500 nM. Association and dissociation were monitored at a flow rate of 40 μl/min, for 180 s and 300 s, respectively.

Binder | Kd
B1 | 2.6 nM
B2 | 2.5 nM
B3 | 2.5 nM
B4 | 2.7 nM
B5 | 2.5 nM
B6 | 254 nM
B7 | 177 nM
B8 | 119 nM
B9 | 47.5 nM
B10 | 81.4 nM
B11 | 76.6 nM
B12 | 120 nM
B13 | 65.5 nM
B14 | 60.4 nM
B15 | 67.3 nM
B16 | 109 nM
B17 | 89.8 nM
B18 | 103 nM
B19 | 239 nM
B20 | 92 nM
B21 | 125 nM
B22 | 250 nM
B23 | 129 nM
B24 | 146 nM
B25 | 641 nM
B26 | 131 nM
B27 | 177 nM
B28 | 529 nM
B29 | 136 nM
B30 | 27.4 nM

biological target: T1, human FcRH5 protein fragment (soluble); assay: BIACORE, human IgG1, soluble human FcRH5

Binder | Fold improvement over hu1G7.v1 | Kd
B31 | 1.1 fold | 13.3 nM
B32 | 2.2 fold | 6.7 nM

biological target: T1, human FcRH5 protein fragment (soluble); assay: SPR, hIgG capture, screening
Protocol: as §1, §2

Binder | Kd
B1 | 2.6 nM
B2 | 2.5 nM
B3 | 2.5 nM
B4 | 2.7 nM
B5 | 2.5 nM
B6 | 250 nM
B7 | 180 nM
B8 | 120 nM
B9 | 48 nM
B10 | 81 nM
B11 | 77 nM
B12 | 120 nM
B13 | 66 nM
B14 | 60 nM
B15 | 67 nM
B16 | 110 nM
B17 | 90 nM
B18 | 100 nM
B19 | 240 nM
B20 | 92 nM
B21 | 130 nM
B22 | 250 nM
B23 | 130 nM
B24 | 150 nM
B25 | 640 nM
B26 | 130 nM
B27 | 180 nM
B28 | 530 nM
B29 | 140 nM
B30 | 27 nM
